Results reported in paper PMC3355305, “Localized Dimerization and Nucleoid Binding Drive Gradient Formation by the Bacterial Cell Division Inhibitor MipZ” (Molecular Cell, 2012).

Test system: C. crescentus cells
Assay: FRAP analysis of MipZ-YFP mobility
Type: cell-based, Caulobacter crescentus
Description: Due to their association with chromosomal DNA, MipZ dimers should display slower diffusion rates than monomers. To test this hypothesis, we monitored the mobility of wild-type and mutant MipZ-YFP fusions using fluorescence recovery after photobleaching (FRAP) analysis. […] Concurrent with the reappearance of fluorescence at the bleached pole, the intensity of the unbleached focus decreased, while the total integrated fluorescence remained constant within the cell.
Figure 5 FRAP Analysis of MipZ Diffusion (A and C) FRAP experiments on cells producing a wild-type MipZ-YFP fusion (A) or a MipZ-D42A fusion (C). Cells of strain MT177 (WT) or MT197 (D42A) were shifted from M2GN to M2G medium containing 0.3% xylose and cultivated for another 4 hr to deplete wild-type MipZ and synthesize the indicated fusion protein instead. Single polar MipZ-YFP foci were photo-bleached (white circles), and recovery was followed by fluorescence microscopy (scale bars represent 2 μm). (B, D, and E) Quantification of the recovery rate in cells producing YFP fusions to wild-type MipZ (MT177) (B), MipZ-D42A (MT197) (D), and MipZ-G14V (MT178) (E). FRAP experiments were performed as described in (A). The graphs show the average relative integrated intensities of the bleached region, an unbleached region of equal size at the opposite pole, and the remaining area of the cell plotted as a function of time. The recovery half-times (t1/2), as determined by fitting of the data to single-exponential functions (red lines), are given on top of the graphs. […] (F) Quantification of the recovery rate of MipZ-YFP in cells depleted of ParB. Strain MT148 was grown in M2G medium for 15 hr and analyzed as described in (B), (D), and (E). […] The recovery half-time measured before depletion of ParB was 11.8 s (±1.2 s; n = 34) (data not shown). See also Figure S6. […] It is uncertain whether they count as substance results. / All panels: the lowered sign after t is very small and is read as ½.
Figure S6. Fluorescence-recovery-after-photobleaching analysis of MipZ mobility, Related to Figure 5.
(A) Representative images of FRAP experiments on cells producing mutant MipZ-YFP fusions. Cells of strains DK2 (K13A), MT178 (G14V) and MT179 (K18Q), which express wild-type mipZ under the control of the ammonium-repressible PnrtX promoter and the indicated mipZ-eyfp allele under the control of the xylose-inducible Pxyl promoter, were shifted from M2GN to M2G medium containing 0.3% xylose and cultivated for another 4 h to deplete wild-type MipZ and synthesize the fusion protein instead. Single polar regions were photo-bleached, and recovery was followed by fluorescence microscopy (bars: 2 µm). The bleached regions are highlighted by circles.
(B) Cells of strain MT177 (ΔmipZ PnrtX::mipZ Pxyl::mipZ-eyfp) were grown as described in (A). Chloramphenicol (20 µg/ml) was added to the growing culture 25 min prior to harvest as well as to the agarose pads used for the FRAP experiments. Fitting of the data to a single exponential equation yielded a recovery half-time of 12.4 s (± 0.5 s).
(C) Cells of strain MT97 (mipZ-eyfp) were grown in M2G medium and subjected to FRAP analysis. The fitted curve corresponds to a recovery half-time of 12.0 s (± 1.2 s).
(D and E) Cells of strains (D) DK2 (ΔmipZ PnrtX::mipZ Pxyl::mipZK13A-eyfp) and (E) MT179 (ΔmipZ PnrtX::mipZ Pxyl::mipZK18Q-eyfp) were grown as described in (A) and subjected to FRAP analysis. […]

B1: MipZ: P loop ATPase and cell division inhibitor of Caulobacter crescentus; hexahistidine-tagged in vitro, YFP fusion in FRAP (protein)
chain: MAETRVIVVGNEKGGAGKSTIAVHLVTALLYGGAKVAVIDLDLRQRTSARFFENRRAWLDNKKIELPEPLALNLSDNDVALAERPEEEQVAGFEAAFARAMAECDFILIDTPGGDSAITRMAHGRADLVVTPMNDSFVDFDMLGTVDPVTLELTKPSLYSLTVWEGRKQRALSGQRQAMDWVVLRNRLATTEARNRKRLEDRLNALAKRVGFRIGPGLRDRVIYRELFPFGLTIADLSPQVRPVPVSLQHLAARQELRALMHSLGLSAYSGETMLAAQ
modifications: left off: His6, end not stated, state not stated
notes: hexahistidine-tagged in vitro, YFP fusion in FRAP
recovery half-time (t1/2) (MipZ-YFP in cells depleted of ParB (strain MT148)): 3.2 s
recovery half-time (t1/2) (YFP fusion, xylose-induced, cells depleted of wild-type MipZ, polar region bleached): 10.7 s
recovery half-time (strain MT97 (mipZ-eyfp), M2G medium, not inducible promoter): 12.0 s
recovery half-time (strain MT148 before depletion of ParB): 11.8 s
recovery half-time (strain MT177, chloramphenicol 20 µg/ml): 12.4 s
